One molecule from US20180200383A1 can be followed below.

For this test, the target named is human folate receptor 1 (FOLR1) (human) (UniProt P15328). In words: cell-based or functional assay.
Sequence of human folate receptor 1 (FOLR1) (human) (P15328 25-234 limits assumed, form in doubt): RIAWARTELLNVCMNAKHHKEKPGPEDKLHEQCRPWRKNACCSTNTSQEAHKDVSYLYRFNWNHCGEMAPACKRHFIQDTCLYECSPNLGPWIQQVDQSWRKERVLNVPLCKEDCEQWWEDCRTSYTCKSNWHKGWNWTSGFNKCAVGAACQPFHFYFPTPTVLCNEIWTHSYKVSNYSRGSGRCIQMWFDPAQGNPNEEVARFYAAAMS

B1: IMGN853 (immunoconjugate of antibody huMov19, sulfo-SPDB and DM4) (antibody, from a related filing, V domains shown, part only)
VH: QVQLVQSGAEVVKPGASVKISCKASGYTFTGYFMNWVKQSPGQSLEWIGRIHPYDGDTFYNQKFQGKATLTVDKSSNTAHMELLSLTSEDFAVYYCTRYDGSRAMDYWGQGTTVTVSS
VL: DIVLTQSPLSLAVSLGQPAIISCKASQSVSFAGTSLMHWYHQKPGQQPRLLIYRASNLEAGVPDRFSGSGSKTDFTLTISPVEAEDAATYYCQQSREYPYTFGGGTKLEIKR
In turn, B1 had an IC50 of cytotoxicity on Jeg-3 cells (5 days, WST-8) of 1 nM.
